Assay results: patent US20090158448A1 (NATIONAL UNIVERSITY CORPORATION TOKYO MEDICAL AND DENTAL …, published 2009)

T1: mutant MuSK (YF), myc tag (mouse, UniProt Q61006 22-868, limits assumed)
T1 construct: Mutation in the NPXY PTB domain target motif; also called YF mutant; not shown: myc tag
T1 sequence: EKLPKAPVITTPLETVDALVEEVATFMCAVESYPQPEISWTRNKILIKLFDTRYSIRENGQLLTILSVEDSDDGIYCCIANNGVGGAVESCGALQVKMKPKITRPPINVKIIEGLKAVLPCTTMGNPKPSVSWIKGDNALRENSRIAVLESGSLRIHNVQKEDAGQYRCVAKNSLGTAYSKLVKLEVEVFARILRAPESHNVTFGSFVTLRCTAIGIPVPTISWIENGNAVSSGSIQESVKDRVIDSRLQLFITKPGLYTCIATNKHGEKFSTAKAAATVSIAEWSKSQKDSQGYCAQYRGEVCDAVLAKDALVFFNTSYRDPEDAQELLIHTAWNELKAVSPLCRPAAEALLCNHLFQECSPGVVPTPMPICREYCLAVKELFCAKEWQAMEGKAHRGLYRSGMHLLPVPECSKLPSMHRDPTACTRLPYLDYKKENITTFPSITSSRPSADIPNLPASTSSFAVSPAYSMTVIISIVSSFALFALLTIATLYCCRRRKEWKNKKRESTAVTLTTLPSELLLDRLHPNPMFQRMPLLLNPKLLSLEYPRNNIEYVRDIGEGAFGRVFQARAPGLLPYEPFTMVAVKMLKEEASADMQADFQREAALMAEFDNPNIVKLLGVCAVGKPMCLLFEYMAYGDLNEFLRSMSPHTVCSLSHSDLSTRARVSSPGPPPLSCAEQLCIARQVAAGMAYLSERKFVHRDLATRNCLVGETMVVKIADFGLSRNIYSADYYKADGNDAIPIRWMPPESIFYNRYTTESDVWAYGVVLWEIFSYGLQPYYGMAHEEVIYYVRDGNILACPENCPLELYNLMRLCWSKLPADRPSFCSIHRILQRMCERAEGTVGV

T2: mutant MuSK (NA), myc tag (mouse, UniProt Q61006 22-868, limits assumed)
T2 construct: Mutation in the NPXY PTB domain target motif; also called NA mutant; not shown: myc tag
T2 sequence: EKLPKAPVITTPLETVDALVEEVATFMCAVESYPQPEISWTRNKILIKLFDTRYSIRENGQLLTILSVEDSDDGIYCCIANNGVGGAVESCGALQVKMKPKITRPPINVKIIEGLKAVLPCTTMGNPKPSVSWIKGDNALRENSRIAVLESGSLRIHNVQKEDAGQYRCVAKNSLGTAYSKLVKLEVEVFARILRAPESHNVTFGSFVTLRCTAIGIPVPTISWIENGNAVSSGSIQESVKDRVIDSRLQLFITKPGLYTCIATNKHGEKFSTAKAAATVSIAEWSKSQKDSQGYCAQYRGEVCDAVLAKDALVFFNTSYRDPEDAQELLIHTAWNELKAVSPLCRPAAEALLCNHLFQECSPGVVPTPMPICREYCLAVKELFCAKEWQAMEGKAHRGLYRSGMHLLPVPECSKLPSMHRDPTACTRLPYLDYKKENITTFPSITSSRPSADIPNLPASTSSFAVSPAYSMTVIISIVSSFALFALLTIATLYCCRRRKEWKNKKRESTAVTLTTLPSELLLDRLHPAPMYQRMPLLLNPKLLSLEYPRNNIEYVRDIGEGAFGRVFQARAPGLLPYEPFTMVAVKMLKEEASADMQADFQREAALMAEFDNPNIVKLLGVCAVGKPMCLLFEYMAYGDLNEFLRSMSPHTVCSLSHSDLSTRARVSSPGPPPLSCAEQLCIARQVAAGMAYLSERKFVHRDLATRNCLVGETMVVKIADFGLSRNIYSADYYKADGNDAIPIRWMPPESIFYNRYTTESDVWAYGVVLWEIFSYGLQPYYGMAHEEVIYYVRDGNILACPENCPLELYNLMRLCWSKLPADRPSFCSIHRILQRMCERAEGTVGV

T3: wild type (WT) mouse MuSK fused to myc tag (mouse, UniProt Q61006 22-868, limits assumed)
T3 construct: also called wild type MuSK (WT); muscle-specific tyrosine kinase; not shown: myc tag
T3 sequence: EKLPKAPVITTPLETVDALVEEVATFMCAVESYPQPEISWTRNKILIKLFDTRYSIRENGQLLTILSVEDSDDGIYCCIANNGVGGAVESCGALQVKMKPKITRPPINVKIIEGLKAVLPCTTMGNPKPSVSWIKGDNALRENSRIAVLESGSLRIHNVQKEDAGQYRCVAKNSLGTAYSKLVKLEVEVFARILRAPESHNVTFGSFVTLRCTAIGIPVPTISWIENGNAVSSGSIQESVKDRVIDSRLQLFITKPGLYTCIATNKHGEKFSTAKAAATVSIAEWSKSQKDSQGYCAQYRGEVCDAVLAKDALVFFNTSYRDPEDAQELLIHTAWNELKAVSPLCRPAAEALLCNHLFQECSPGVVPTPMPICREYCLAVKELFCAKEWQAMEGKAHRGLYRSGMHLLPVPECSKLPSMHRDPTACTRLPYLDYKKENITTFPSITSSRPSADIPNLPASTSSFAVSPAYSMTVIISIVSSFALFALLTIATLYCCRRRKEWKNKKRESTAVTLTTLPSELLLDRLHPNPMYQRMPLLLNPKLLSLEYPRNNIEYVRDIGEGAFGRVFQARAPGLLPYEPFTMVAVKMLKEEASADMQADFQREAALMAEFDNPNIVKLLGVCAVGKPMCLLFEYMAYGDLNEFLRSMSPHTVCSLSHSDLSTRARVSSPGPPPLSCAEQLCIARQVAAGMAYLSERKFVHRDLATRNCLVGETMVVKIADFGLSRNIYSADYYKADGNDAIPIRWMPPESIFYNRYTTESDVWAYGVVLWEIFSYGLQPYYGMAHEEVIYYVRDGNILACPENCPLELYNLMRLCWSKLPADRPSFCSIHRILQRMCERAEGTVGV


Legend:
Assay in all cases: co-immunoprecipitation (anti-myc) and western, 293T cells
[1] = target: T1, mutant MuSK (YF), myc tag
Method: (§1) Immunoprecipitation of whole cell lysate (WCL) obtained from each transformed cell strain was carried out using an anti-myc tag antibody, and thus an immunoprecipitate (IP: αmyc) was obtained. Then, a western blot analysis was performed for the whole cell lysate and immunoprecipitate. The antibodies used were the same as the antibodies described above.
(§2) Then, immunoprecipitation of whole cell lysate (WCL) obtained from each transformed cell strain was carried out, and a western analysis was performed on the resulting immunoprecipitate (IP: αmyc). The antibodies used were the same as the antibodies described above.

[2] = target: T2, mutant MuSK (NA), myc tag
Method: as §1, §2

[3] = target: T3, wild type (WT) mouse MuSK fused to myc …
Method: as §1, §2

| Binder | binding result [1] | binding result [2] | binding result [3] |
| --- | --- | --- | --- |
| wild type human Dok-7 protein (other, also called WT; polypeptide of the present invention) MTEAALVEGQVKLRDGKKWKSRWLVLRKPSPVADCLLMLVYKDKSERIKGLRERSSLTLEDICGLEPGLPYEGLVHTLAIVCLSQAIMLGFDSHEAMCAWDARIRYALGEVHRFHVTVAPGTKLESGPATLHLCNDVLVLARDIPPAVTGQWKLSDLRRYGAVPSGFIFEGGTRCGYWAGVFFLSSAEGEQISFLFDCIVRGISPTKGPFGLRPVLPDPSPPGPSTVEERVAQEALETLQLEKRLSLLSHAGRPGSGGDDRSLSSSSSEASHLDVSASSRLTAWPEQSSSSASTSQEGPRPAAAQAAGEAMVGASRPPPKPLRPRQLQEVGRQSSSDSGIATGSHSSYSSSLSSYAGSSLDVWRATDELGSLLSLPAAGAPEPSLCTCLPGTVEYQVPTSLRAHYDTPRSLCLAPRDHSPPSQGSPGNSAARDSGGQTSAGCPSGWLGTRRRGLVMEAPQGSEATLPGPAPGEPWEAGGPHAGPPPAFFSACPVCGGLKVNPPP | no binding | no binding | – |
| mutant Dok-7 (RA) (other, also called RA of Dok-7) MTEAALVEGQVKLRDGKKWKSRWLVLRKPSPVADCLLMLVYKDKSERIKGLRERSSLTLEDICGLEPGLPYEGLVHTLAIVCLSQAIMLGFDSHEAMCAWDARIRYALGEVHRFHVTVAPGTKLESGPATLHLCNDVLVLARDIPPAVTGQWKLSDLAAYGAVPSGFIFEGGTACGYWAGVFFLSSAEGEQISFLFDCIVRGISPTKGPFGLRPVLPDPSPPGPSTVEERVAQEALETLQLEKRLSLLSHAGRPGSGGDDRSLSSSSSEASHLDVSASSRLTAWPEQSSSSASTSQEGPRPAAAQAAGEAMVGASRPPPKPLRPRQLQEVGRQSSSDSGIATGSHSSYSSSLSSYAGSSLDVWRATDELGSLLSLPAAGAPEPSLCTCLPGTVEYQVPTSLRAHYDTPRSLCLAPRDHSPPSQGSPGNSAARDSGGQTSAGCPSGWLGTRRRGLVMEAPQGSEATLPGPAPGEPWEAGGPHAGPPPAFFSACPVCGGLKVNPPP | – | – | no binding |
